Experimental data reported in doi:10.1101/2021.11.08.467742 (bioRxiv, 2021).

Target: the molecule itself
Assay: negative stain electron microscopy on supported lipid monolayers; full-length FtsA at 0.1-0.2 mg/ml with 1 mM ATP, without or with FtsN peptide (up to 10-fold molar excess), on E. coli polar lipid monolayers; binding buffer pH 7.7

| Protein | binding result |
| --- | --- |
| Escherichia coli FtsA, full length (natural protein, E. coli, UniProt P0ABH0 1-420, looked up, FtsA, Escherichia coli, full-length protein; also called EcFtsA; E. coli FtsA; source: E. coli C41(DE3), purified (HisTrap, chitin resin with intein cleavage, SEC); not shown: intein-CBD-12H, C-terminal, cleaved) MIKATDRKLVVGLEIGTAKVAALVGEVLPDGMVNIIGVGSCPSRGMDKGGVNDLESVVKCVQRAIDQAELMADCQISSVYLALSGKHISCQNEIGMVPISEEEVTQEDVENVVHTAKSVRVRDEHRVLHVIPQEYAIDYQEGIKNPVGLSGVRMQAKVHLITCHNDMAKNIVKAVERCGLKVDQLIFAGLASSYSVLTEDERELGVCVVDIGGGTMDIAVYTGGALRHTKVIPYAGNVVTSDIAYAFGTPPSDAEAIKVRHGCALGSIVGKDESVEVPSVGGRPPRSLQRQTLAEVIEPRYTELLNLVNEEILQLQEKLRQQGVKHHLAAGIVLTGGAAQIEGLAACAQRVFHTQVRIGAPLNITGLTDYAQEPYYSTAVGLLHYGKESHLNGEAEVEKRVTASVGSWIKRLNSWLRKEF | binds |
| Escherichia coli FtsA E124A (FtsN suppressor mutant), full length (natural protein, E. coli, UniProt P0ABH0 1-420, looked up, FtsA, Escherichia coli, full-length protein with E124A; also called EcFtsA^E124A; source: E. coli C41(DE3), purified (HisTrap, chitin resin with intein cleavage, SEC); not shown: intein-CBD-12H, C-terminal, cleaved) MIKATDRKLVVGLEIGTAKVAALVGEVLPDGMVNIIGVGSCPSRGMDKGGVNDLESVVKCVQRAIDQAELMADCQISSVYLALSGKHISCQNEIGMVPISEEEVTQEDVENVVHTAKSVRVRDAHRVLHVIPQEYAIDYQEGIKNPVGLSGVRMQAKVHLITCHNDMAKNIVKAVERCGLKVDQLIFAGLASSYSVLTEDERELGVCVVDIGGGTMDIAVYTGGALRHTKVIPYAGNVVTSDIAYAFGTPPSDAEAIKVRHGCALGSIVGKDESVEVPSVGGRPPRSLQRQTLAEVIEPRYTELLNLVNEEILQLQEKLRQQGVKHHLAAGIVLTGGAAQIEGLAACAQRVFHTQVRIGAPLNITGLTDYAQEPYYSTAVGLLHYGKESHLNGEAEVEKRVTASVGSWIKRLNSWLRKEF | binds |
| Escherichia coli FtsA I143L (FtsN suppressor mutant), full length (natural protein, E. coli, UniProt P0ABH0 1-420, looked up, FtsA, Escherichia coli, full-length protein with I143L; also called EcFtsA^I143L; source: E. coli C41(DE3), purified (HisTrap, chitin resin with intein cleavage, SEC); not shown: intein-CBD-12H, C-terminal, cleaved) MIKATDRKLVVGLEIGTAKVAALVGEVLPDGMVNIIGVGSCPSRGMDKGGVNDLESVVKCVQRAIDQAELMADCQISSVYLALSGKHISCQNEIGMVPISEEEVTQEDVENVVHTAKSVRVRDEHRVLHVIPQEYAIDYQEGLKNPVGLSGVRMQAKVHLITCHNDMAKNIVKAVERCGLKVDQLIFAGLASSYSVLTEDERELGVCVVDIGGGTMDIAVYTGGALRHTKVIPYAGNVVTSDIAYAFGTPPSDAEAIKVRHGCALGSIVGKDESVEVPSVGGRPPRSLQRQTLAEVIEPRYTELLNLVNEEILQLQEKLRQQGVKHHLAAGIVLTGGAAQIEGLAACAQRVFHTQVRIGAPLNITGLTDYAQEPYYSTAVGLLHYGKESHLNGEAEVEKRVTASVGSWIKRLNSWLRKEF | binds |
| Escherichia coli FtsA G50E (ZipA suppressor and filament architecture mutant), full length (natural protein, E. coli, UniProt P0ABH0 1-420, looked up, FtsA, Escherichia coli, full-length protein with G50E; also called EcFtsA^G50E; source: E. coli C41(DE3), purified (HisTrap, chitin resin with intein cleavage, SEC); not shown: intein-CBD-12H, C-terminal, cleaved) MIKATDRKLVVGLEIGTAKVAALVGEVLPDGMVNIIGVGSCPSRGMDKGEVNDLESVVKCVQRAIDQAELMADCQISSVYLALSGKHISCQNEIGMVPISEEEVTQEDVENVVHTAKSVRVRDEHRVLHVIPQEYAIDYQEGIKNPVGLSGVRMQAKVHLITCHNDMAKNIVKAVERCGLKVDQLIFAGLASSYSVLTEDERELGVCVVDIGGGTMDIAVYTGGALRHTKVIPYAGNVVTSDIAYAFGTPPSDAEAIKVRHGCALGSIVGKDESVEVPSVGGRPPRSLQRQTLAEVIEPRYTELLNLVNEEILQLQEKLRQQGVKHHLAAGIVLTGGAAQIEGLAACAQRVFHTQVRIGAPLNITGLTDYAQEPYYSTAVGLLHYGKESHLNGEAEVEKRVTASVGSWIKRLNSWLRKEF | binds |
